Measured values reported in patent US20240270846A1 (published 2024).
Substitutions are numbered along the chain they refer to. Names and notes keep the numbering of the source.

B1: GLS3000 S25E (Kabat) L chain altered form, one-arm antibody with CE115HA000 (antibody, human IgG1, kappa, L234A L235A, N297A, name in Kabat numbering)
heavy: QVQLVESGGGVVQPGRSLRLSCAASGFTFSNAWMHWVRQAPGKGLEWVAQIKAKSNNYATYYAESVKGRFTISRDDSKNSLYLQMNSLKTEDTAVYYCRYVHYGAYYGVDAWGQGTTVTVSSASTKGPSVFPLAPSSKSTSGGTAALGCLVKDYFPEPVTVSWNSGALTSGVHTFPAVLQSSGLYSLSSVVTVPSSSLGTQTYICNVNHKPSNTKVDKKVEPKSCDKTHTCPPCPAPEAAGGPSVFLFPPKPKDTLMISRTPEVTCVVVDVSHEDPEVKFNWYVDGVEVHNAKTKPREEQYASTYRVVSVLTVLHQDWLNGKEYKCKVSNKALPAPIEKTISKAKGQPREPQVYTLPPSRCELTKNQVSLSCAVKGFYPSDIAVEWESNGQPENNYKTTPPVLDSDGSFFLVSKLTVDKSRWQQGNVFSCSVMHEALHNHYTQKSLSLSPDYKDDDDK
chain: EPKSSDKTHTCPPCPAPELLGGPSVFLFPPKPKDTLMISRTPEVTCVVVDVSHEDPEVKFNWYVDGVEVHNAKTKPREEQYNSTYRVVSVLTVLHQDWLNGKEYKCKVSNKALPAPIEKTISKAKGQPREPQVCTLPPSRDELTKNQVSLWCLVKGFYPSDIAVEWESNGQPENNYKTTPPVLDSDGSFFLYSKLTVDKSRWQQGNVFSCSVMHEALHNRYTQKSLSLSP
light: DIVMTQSPLSLPVTPGEPASISCRESQSLVHSNRNTYLHWYQQKPGQAPRLLIYKVSNRFSGVPDRFSGSGSGTDFTLKISRVEAEDVGVYYCGQGTQVPYTFGQGTKLEIKRTVAAPSVFIFPPSDEQLKSGTASVVCLLNNFYPREAKVQWKVDNALQSGNSQESVTEQDSKDSTYSLSSTLTLSKADYEKHKVYACEVTHQGLSSPVTKSFNRGEC
notes: one-arm antibody
B2: GLS3000 S27eL (Kabat) L chain altered form, one-arm antibody with CE115HA000 (antibody, human IgG1, kappa, L234A L235A, N297A, name in Kabat numbering)
heavy: B1 heavy
chain: B1 chain
light: B1 light with E25S, S32L
notes: one-arm antibody
B3: GLS3000 S27eQ (Kabat) L chain altered form, one-arm antibody with CE115HA000 (antibody, human IgG1, kappa, L234A L235A, N297A, name in Kabat numbering)
heavy: B1 heavy
chain: B1 chain
light: B1 light with E25S, S32Q
notes: one-arm antibody
B4: GLS3000 S27aI (Kabat) L chain altered form, one-arm antibody with CE115HA000 (antibody, human IgG1, kappa, L234A L235A, N297A, name in Kabat numbering)
heavy: B1 heavy
chain: B1 chain
light: B1 light with E25S, S28I
notes: one-arm antibody
B5: GLS3000 S27aY (Kabat) L chain altered form, one-arm antibody with CE115HA000 (antibody, human IgG1, kappa, L234A L235A, N297A, name in Kabat numbering)
heavy: B1 heavy
chain: B1 chain
light: B1 light with E25S, S28Y
notes: one-arm antibody
B6: GLS3000 S26E (Kabat) L chain altered form, one-arm antibody with CE115HA000 (antibody, human IgG1, kappa, L234A L235A, N297A, name in Kabat numbering)
heavy: B1 heavy
chain: B1 chain
light: B1 light with E25S, S26E
notes: one-arm antibody
B7: GLS3000 S25V (Kabat) L chain altered form, one-arm antibody with CE115HA000 (antibody, human IgG1, kappa, L234A L235A, N297A, name in Kabat numbering)
heavy: B1 heavy
chain: B1 chain
light: B1 light with E25V
notes: one-arm antibody
B8: GLS3000 S27eG (Kabat) L chain altered form, one-arm antibody with CE115HA000 (antibody, human IgG1, kappa, L234A L235A, N297A, name in Kabat numbering)
heavy: B1 heavy
chain: B1 chain
light: B1 light with E25S, S32G
notes: one-arm antibody
B9: GLS3000 S27eI (Kabat) L chain altered form, one-arm antibody with CE115HA000 (antibody, human IgG1, kappa, L234A L235A, N297A, name in Kabat numbering)
heavy: B1 heavy
chain: B1 chain
light: B1 light with E25S, S32I
notes: one-arm antibody
B10: GLS3000 S27eN (Kabat) L chain altered form, one-arm antibody with CE115HA000 (antibody, human IgG1, kappa, L234A L235A, N297A, name in Kabat numbering)
heavy: B1 heavy
chain: B1 chain
light: B1 light with E25S, S32N
notes: one-arm antibody
B11: GLS3000 S26P (Kabat) L chain altered form, one-arm antibody with CE115HA000 (antibody, human IgG1, kappa, L234A L235A, N297A, name in Kabat numbering)
heavy: B1 heavy
chain: B1 chain
light: B1 light with E25S, S26P
notes: one-arm antibody
B12: GLS3000 S25I (Kabat) L chain altered form, one-arm antibody with CE115HA000 (antibody, human IgG1, kappa, L234A L235A, N297A, name in Kabat numbering)
heavy: B1 heavy
chain: B1 chain
light: B1 light with E25I
notes: one-arm antibody
B13: GLS3000 S26D (Kabat) L chain altered form, one-arm antibody with CE115HA000 (antibody, human IgG1, kappa, L234A L235A, N297A, name in Kabat numbering)
heavy: B1 heavy
chain: B1 chain
light: B1 light with E25S, S26D
notes: one-arm antibody
B14: GLS3000 S27aN (Kabat) L chain altered form, one-arm antibody with CE115HA000 (antibody, human IgG1, kappa, L234A L235A, N297A, name in Kabat numbering)
heavy: B1 heavy
chain: B1 chain
light: B1 light with E25S, S28N
notes: one-arm antibody
B15: GLS3000 S27eM (Kabat) L chain altered form, one-arm antibody with CE115HA000 (antibody, human IgG1, kappa, L234A L235A, N297A, name in Kabat numbering)
heavy: B1 heavy
chain: B1 chain
light: B1 light with E25S, S32M
notes: one-arm antibody
B16: GLS3000 S27eH (Kabat) L chain altered form, one-arm antibody with CE115HA000 (antibody, human IgG1, kappa, L234A L235A, N297A, name in Kabat numbering)
heavy: B1 heavy
chain: B1 chain
light: B1 light with E25S, S32H
notes: one-arm antibody
B17: GLS3000 S27eW (Kabat) L chain altered form, one-arm antibody with CE115HA000 (antibody, human IgG1, kappa, L234A L235A, N297A, name in Kabat numbering)
heavy: B1 heavy
chain: B1 chain
light: B1 light with E25S, S32W
notes: one-arm antibody
B18: GLS3000 S25M (Kabat) L chain altered form, one-arm antibody with CE115HA000 (antibody, human IgG1, kappa, L234A L235A, N297A, name in Kabat numbering)
heavy: B1 heavy
chain: B1 chain
light: B1 light with E25M
notes: one-arm antibody
B19: GLS3000 S27aG (Kabat) L chain altered form, one-arm antibody with CE115HA000 (antibody, human IgG1, kappa, L234A L235A, N297A, name in Kabat numbering)
heavy: B1 heavy
chain: B1 chain
light: B1 light with E25S, S28G
notes: one-arm antibody
B20: GLS3000 S27aE (Kabat) L chain altered form, one-arm antibody with CE115HA000 (antibody, human IgG1, kappa, L234A L235A, N297A, name in Kabat numbering)
heavy: B1 heavy
chain: B1 chain
light: B1 light with E25S, S28E
notes: one-arm antibody
B21: GLS3000 S25T (Kabat) L chain altered form, one-arm antibody with CE115HA000 (antibody, human IgG1, kappa, L234A L235A, N297A, name in Kabat numbering)
heavy: B1 heavy
chain: B1 chain
light: B1 light with E25T
notes: one-arm antibody
B22: GLS3000 S25P (Kabat) L chain altered form, one-arm antibody with CE115HA000 (antibody, human IgG1, kappa, L234A L235A, N297A, name in Kabat numbering)
heavy: B1 heavy
chain: B1 chain
light: B1 light with E25P
notes: one-arm antibody
B23: GLS3000 S27eV (Kabat) L chain altered form, one-arm antibody with CE115HA000 (antibody, human IgG1, kappa, L234A L235A, N297A, name in Kabat numbering)
heavy: B1 heavy
chain: B1 chain
light: B1 light with E25S, S32V
notes: one-arm antibody
B24: GLS3000 S27eE (Kabat) L chain altered form, one-arm antibody with CE115HA000 (antibody, human IgG1, kappa, L234A L235A, N297A, name in Kabat numbering)
heavy: B1 heavy
chain: B1 chain
light: B1 light with E25S, S32E
notes: one-arm antibody
B25: GLS3000 S27aD (Kabat) L chain altered form, one-arm antibody with CE115HA000 (antibody, human IgG1, kappa, L234A L235A, N297A, name in Kabat numbering)
heavy: B1 heavy
chain: B1 chain
light: B1 light with E25S, S28D
notes: one-arm antibody
B26: GLS3000 S27eF (Kabat) L chain altered form, one-arm antibody with CE115HA000 (antibody, human IgG1, kappa, L234A L235A, N297A, name in Kabat numbering)
heavy: B1 heavy
chain: B1 chain
light: B1 light with E25S, S32F
notes: one-arm antibody
B27: GLS3000 S27eA (Kabat) L chain altered form, one-arm antibody with CE115HA000 (antibody, human IgG1, kappa, L234A L235A, N297A, name in Kabat numbering)
heavy: B1 heavy
chain: B1 chain
light: B1 light with E25S, S32A
notes: one-arm antibody
B28: GLS3000 S27eT (Kabat) L chain altered form, one-arm antibody with CE115HA000 (antibody, human IgG1, kappa, L234A L235A, N297A, name in Kabat numbering)
heavy: B1 heavy
chain: B1 chain
light: B1 light with E25S, S32T
notes: one-arm antibody
B29: GLS3000 S25L (Kabat) L chain altered form, one-arm antibody with CE115HA000 (antibody, human IgG1, kappa, L234A L235A, N297A, name in Kabat numbering)
heavy: B1 heavy
chain: B1 chain
light: B1 light with E25L
notes: one-arm antibody
B30: GLS3000 S27eK (Kabat) L chain altered form, one-arm antibody with CE115HA000 (antibody, human IgG1, kappa, L234A L235A, N297A, name in Kabat numbering)
heavy: B1 heavy
chain: B1 chain
light: B1 light with E25S, S32K
notes: one-arm antibody
B31: GLS3000 S27eP (Kabat) L chain altered form, one-arm antibody with CE115HA000 (antibody, human IgG1, kappa, L234A L235A, N297A, name in Kabat numbering)
heavy: B1 heavy
chain: B1 chain
light: B1 light with E25S, S32P
notes: one-arm antibody
B32: GLS3000 S27eR (Kabat) L chain altered form, one-arm antibody with CE115HA000 (antibody, human IgG1, kappa, L234A L235A, N297A, name in Kabat numbering)
heavy: B1 heavy
chain: B1 chain
light: B1 light with E25S, S32R
notes: one-arm antibody
B33: GLS3000 S27aP (Kabat) L chain altered form, one-arm antibody with CE115HA000 (antibody, human IgG1, kappa, L234A L235A, N297A, name in Kabat numbering)
heavy: B1 heavy
chain: B1 chain
light: B1 light with E25S, S28P
notes: one-arm antibody
B34: GLS3000 S27eD (Kabat) L chain altered form, one-arm antibody with CE115HA000 (antibody, human IgG1, kappa, L234A L235A, N297A, name in Kabat numbering)
heavy: B1 heavy
chain: B1 chain
light: B1 light with E25S, S32D
notes: one-arm antibody

biological target: T1, CD3 epsilon homodimer protein (UniProt P07766 23-126); assay: SPR Biacore T200, CD3 epsilon homodimer immobilized; vs unaltered GLS3000;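 note: antibody variants flowed as analyte over CD3 epsilon homodimer amine-coupled to a CM4 chip, at 25 °C in HBS-EP+ running buffer, fitted with Biacore T200 Evaluation Software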
T1 construct: construct not described; homodimer as printed; also called CD3 (CD3 epsilon)
T1 sequence (P07766 23-126): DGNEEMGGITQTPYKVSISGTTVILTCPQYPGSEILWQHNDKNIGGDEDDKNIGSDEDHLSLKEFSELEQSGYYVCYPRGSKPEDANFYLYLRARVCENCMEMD

KD ratio to GLS3000 (Affinity up)	Binder
6.54	B1
1.06	B2
1.08	B3
0.87	B4
0.93	B5
0.9	B6
0.74	B7
1.03	B8
1.05	B9
1.01	B10
0.67	B11
0.67	B12
1.06	B13
0.98	B14
1.11	B15
1.09	B16
1.32	B17

KD ratio to GLS3000 (Affinity up)	Binder
1.6	B18
0.8	B19
0.94	B20
0.75	B21
0.79	B22
0.95	B23
1.04	B24
0.94	B25
1.16	B26
1.01	B27
0.98	B28
4.93	B29
1.32	B30
1.06	B31
1.35	B32
1.01	B33
1.23	B34
